Measured values: PMC8336837, “Structure of the human C9orf72-SMCR8 complex reveals a multivalent protein interaction architecture” (PLoS Biology, 2021)

Columns and labels:
[1] = molecular target: T1, full-length C9orf72-SMCR8 complex (GST-tagged) (human, UniProt Q96LT7 1-481; Q8TEV9 1-937); test: SEC; reconstitution of the trimeric complex from purified C9orf72-SMCR8 and WDR41; Superose 6 10/300 GL, 20 mM HEPES pH 8.0, 150 mM NaCl, 2 mM DTT, 3% glycerol; settings: both partners purified
T1 construct: C9orf72, human, the longer isoform (481 AA); codon-optimised synthetic open reading frame; SMCR8, human, from a human cDNA library; GST on C9orf72 is stated for the GST pull-down; also called GST-tagged C9orf72-SMCR8; source: Sf-9 insect cells, the two proteins co-expressed, purified (Strep-Tactin, size-exclusion chromatography); not shown: GST, N-terminal, kept
T1 sequence (looked up) 1: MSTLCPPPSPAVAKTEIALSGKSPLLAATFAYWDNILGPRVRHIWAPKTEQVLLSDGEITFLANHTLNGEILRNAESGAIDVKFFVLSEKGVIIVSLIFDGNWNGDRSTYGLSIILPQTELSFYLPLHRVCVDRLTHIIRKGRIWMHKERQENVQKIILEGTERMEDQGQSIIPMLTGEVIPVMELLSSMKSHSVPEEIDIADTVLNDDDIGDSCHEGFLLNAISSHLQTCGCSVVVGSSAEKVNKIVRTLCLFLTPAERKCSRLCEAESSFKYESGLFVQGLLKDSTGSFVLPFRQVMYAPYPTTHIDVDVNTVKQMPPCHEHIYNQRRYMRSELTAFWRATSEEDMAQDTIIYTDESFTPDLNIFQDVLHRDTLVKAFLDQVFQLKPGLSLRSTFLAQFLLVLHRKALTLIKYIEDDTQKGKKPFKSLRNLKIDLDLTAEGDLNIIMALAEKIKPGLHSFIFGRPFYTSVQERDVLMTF
T1 sequence (looked up) 2: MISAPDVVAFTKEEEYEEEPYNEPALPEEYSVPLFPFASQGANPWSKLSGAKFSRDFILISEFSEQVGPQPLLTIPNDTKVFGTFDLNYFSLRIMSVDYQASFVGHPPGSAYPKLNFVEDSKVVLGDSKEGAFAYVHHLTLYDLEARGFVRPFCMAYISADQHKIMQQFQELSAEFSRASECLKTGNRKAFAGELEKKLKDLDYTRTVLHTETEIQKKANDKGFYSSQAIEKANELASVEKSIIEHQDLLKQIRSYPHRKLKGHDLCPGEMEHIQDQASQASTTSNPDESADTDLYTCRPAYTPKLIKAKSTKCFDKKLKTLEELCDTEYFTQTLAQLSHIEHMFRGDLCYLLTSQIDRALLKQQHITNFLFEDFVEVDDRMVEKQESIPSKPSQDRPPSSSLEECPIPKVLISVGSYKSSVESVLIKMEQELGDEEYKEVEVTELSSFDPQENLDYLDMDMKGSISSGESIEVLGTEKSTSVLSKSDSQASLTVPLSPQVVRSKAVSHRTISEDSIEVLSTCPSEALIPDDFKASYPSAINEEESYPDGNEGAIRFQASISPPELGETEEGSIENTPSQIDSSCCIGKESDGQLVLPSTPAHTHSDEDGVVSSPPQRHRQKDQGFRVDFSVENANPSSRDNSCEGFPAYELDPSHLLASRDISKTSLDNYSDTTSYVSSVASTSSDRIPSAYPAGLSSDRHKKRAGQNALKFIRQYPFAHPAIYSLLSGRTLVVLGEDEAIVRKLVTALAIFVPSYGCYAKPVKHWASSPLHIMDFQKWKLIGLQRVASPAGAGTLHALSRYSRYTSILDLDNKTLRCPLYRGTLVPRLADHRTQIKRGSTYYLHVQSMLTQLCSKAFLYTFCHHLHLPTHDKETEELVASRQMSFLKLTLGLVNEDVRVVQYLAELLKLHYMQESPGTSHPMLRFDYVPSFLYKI

SMCR8 (full-length) = molecular target: T2, SMCR8 (full-length) (human, UniProt Q8TEV9 1-937); test: cross-linking; DSSO (0.5 to 10 mM, 1 hour at room temperature) on C9orf72-SMCR8 complex mixed with WDR41 in equimolar ratio (200 pmol) in 20 mM HEPES pH 8.0, 150 mM NaCl, 2 mM DTT, 3% glycerol; mass spectrometry after digestion; settings: both partners purified
T2 construct: SMCR8, human, open reading frame amplified from a human cDNA library; residues 1-937; also called SMCR8 Fl; source: Sf-9 insect cells, co-expressed with C9orf72, purified (Strep-Tactin, size-exclusion chromatography)
T2 sequence (looked up): T1 sequence (looked up) 2

[2] = molecular target: T3, Strep-SMCR8ΔCC (SMCR8 mutant lacking its coiled-coil region) (human, UniProt Q8TEV9 1-937, missing residues 181 to 250); test: affinity purification with mass spectrometry; Strep-SMCR8 (WT or ΔCC) and C9orf72 transfected into HEK293T; cells fed or starved 90 minutes (amino acid- and glucose-free media) before lysis; magnetic Strep-Tactin beads; label-free quantification (LFQ), triplicates; settings: partners not purified
T3 construct: SMCR8, human, lacking the coiled-coil region (missing residues 181 to 250); Cloned into pOPINE-3C-eGFP; source: HEK293T, transfected together with C9orf72, in lysate; not shown: twin-strep, N-terminal, kept
T3 sequence (looked up): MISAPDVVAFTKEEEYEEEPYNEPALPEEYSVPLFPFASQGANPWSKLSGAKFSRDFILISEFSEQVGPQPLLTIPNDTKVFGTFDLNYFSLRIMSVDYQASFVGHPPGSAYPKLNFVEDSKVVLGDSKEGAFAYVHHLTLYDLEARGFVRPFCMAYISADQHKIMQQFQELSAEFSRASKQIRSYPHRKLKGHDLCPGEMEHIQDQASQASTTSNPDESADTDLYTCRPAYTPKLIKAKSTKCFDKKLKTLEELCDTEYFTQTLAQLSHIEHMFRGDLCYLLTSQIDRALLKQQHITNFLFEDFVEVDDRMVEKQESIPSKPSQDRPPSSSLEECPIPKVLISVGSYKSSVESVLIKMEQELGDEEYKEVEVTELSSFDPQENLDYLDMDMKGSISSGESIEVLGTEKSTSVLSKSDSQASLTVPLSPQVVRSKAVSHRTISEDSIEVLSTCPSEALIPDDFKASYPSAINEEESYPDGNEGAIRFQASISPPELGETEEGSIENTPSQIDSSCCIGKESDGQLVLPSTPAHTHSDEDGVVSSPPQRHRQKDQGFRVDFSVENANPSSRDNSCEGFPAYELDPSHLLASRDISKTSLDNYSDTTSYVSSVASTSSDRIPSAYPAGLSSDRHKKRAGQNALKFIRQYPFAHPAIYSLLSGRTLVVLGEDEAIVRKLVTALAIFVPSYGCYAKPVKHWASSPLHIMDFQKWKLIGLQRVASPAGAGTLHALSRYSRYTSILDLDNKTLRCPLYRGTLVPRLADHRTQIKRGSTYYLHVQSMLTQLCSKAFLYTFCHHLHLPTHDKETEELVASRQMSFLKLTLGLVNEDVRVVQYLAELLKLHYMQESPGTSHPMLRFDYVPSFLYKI

C9orf72 (full-length) = molecular target: T4, C9orf72 (full-length) (human, UniProt Q96LT7 1-481); test: SEC; limited proteolysis: full-length C9orf72-SMCR8-WDR41 complex (0.93 mg) with trypsin (4.6 ug) 20 minutes on ice, then size-exclusion chromatography; bands of the peak fraction identified by tandem mass spectrometry; settings: both partners purified
T4 construct: C9orf72, human, the longer isoform (481 AA); open reading frame commercially synthesized with codon optimization; also called Fl-C9orf72; C9orf72 Fl; source: Sf-9 insect cells, co-expressed with SMCR8 or SMCR8N-C, purified (Strep-Tactin, size-exclusion chromatography)
T4 sequence (looked up): T1 sequence (looked up) 1

B1: WDR41 (full-length) (natural protein, human, UniProt Q9HAD4 1-459, looked up)
chain: MLRWLIGGGREPQGLAEKSPLQTIGEEQTQNPYTELLVLKAHHDIVRFLVQLDDYRFASAGDDGIVVVWNAQTGEKLLELNGHTQKITAIITFPSLESCEEKNQLILTASADRTVIVWDGDTTRQVQRISCFQSTVKCLTVLQRLDVWLSGGNDLCVWNRKLDLLCKTSHLSDTGISALVEIPKNCVVAAVGKELIIFRLVAPTEGSLEWDILEVKRLLDHQDNILSLINVNDLSFVTGSHVGELIIWDALDWTMQAYERNFWDPSPQLDTQQEIKLCQKSNDISIHHFTCDEENVFAAVGRGLYVYSLQMKRVIACQKTAHDSNVLHVARLPNRQLISCSEDGSVRIWELREKQQLAAEPVPTGFFNMWGFGRVSKQASQPVKKQQENATSCSLELIGDLIGHSSSVEMFLYFEDHGLVTCSADHLIILWKNGERESGLRSLRLFQKLEENGDLYLAV
notes: WDR41, human, open reading frame amplified from a human cDNA library; also called WDR41 Fl; source: Sf-9 insect cells, expressed individually, purified (Strep-Tactin, size-exclusion chromatography)
B1: binds [1]; binds (SMCR8 (full-length)).

B2: WDR41 (in HEK293T cells) (natural protein, human (endogenous in HEK293T), UniProt Q9HAD4 1-459, looked up)
chain: B1 chain
notes: WDR41, found by mass spectrometry in Strep-Tactin purifications from HEK293T cells (only SMCR8 and C9orf72 plasmids were transfected); source: endogenous, HEK293T lysate
In the case of B2, the “fold increase of WDR41 (LFQ) against SMCR8 WT fed, fed cells” value [2] is reported as roughly 4.5 fold and the “fold increase of WDR41 (LFQ) against SMCR8 WT fed, starved cells” value [2] is reported as roughly 5.5 fold.

B3: N-terminal domain of SMCR8 (SMCR8N), tryptic fragment (domain or fragment, human, UniProt Q8TEV9 1-439, looked up)
chain: MISAPDVVAFTKEEEYEEEPYNEPALPEEYSVPLFPFASQGANPWSKLSGAKFSRDFILISEFSEQVGPQPLLTIPNDTKVFGTFDLNYFSLRIMSVDYQASFVGHPPGSAYPKLNFVEDSKVVLGDSKEGAFAYVHHLTLYDLEARGFVRPFCMAYISADQHKIMQQFQELSAEFSRASECLKTGNRKAFAGELEKKLKDLDYTRTVLHTETEIQKKANDKGFYSSQAIEKANELASVEKSIIEHQDLLKQIRSYPHRKLKGHDLCPGEMEHIQDQASQASTTSNPDESADTDLYTCRPAYTPKLIKAKSTKCFDKKLKTLEELCDTEYFTQTLAQLSHIEHMFRGDLCYLLTSQIDRALLKQQHITNFLFEDFVEVDDRMVEKQESIPSKPSQDRPPSSSLEECPIPKVLISVGSYKSSVESVLIKMEQELGDEEYK
notes: SMCR8, human, residues 1 to 439, product of limited proteolysis identified by mass spectrometry; source: Sf-9 insect cells; purified full-length C9orf72-SMCR8-WDR41 complex cut with trypsin
B3: binds (C9orf72 (full-length)).

B4: carboxyl-terminal domain of SMCR8 (SMCR8C), tryptic fragment (domain or fragment, human, UniProt Q8TEV9 620-937, looked up)
chain: RQKDQGFRVDFSVENANPSSRDNSCEGFPAYELDPSHLLASRDISKTSLDNYSDTTSYVSSVASTSSDRIPSAYPAGLSSDRHKKRAGQNALKFIRQYPFAHPAIYSLLSGRTLVVLGEDEAIVRKLVTALAIFVPSYGCYAKPVKHWASSPLHIMDFQKWKLIGLQRVASPAGAGTLHALSRYSRYTSILDLDNKTLRCPLYRGTLVPRLADHRTQIKRGSTYYLHVQSMLTQLCSKAFLYTFCHHLHLPTHDKETEELVASRQMSFLKLTLGLVNEDVRVVQYLAELLKLHYMQESPGTSHPMLRFDYVPSFLYKI
notes: SMCR8, human, residues 620 to 937, product of limited proteolysis identified by mass spectrometry; source: Sf-9 insect cells; purified full-length C9orf72-SMCR8-WDR41 complex cut with trypsin
B4: binds (C9orf72 (full-length)).
